# No end group written: not given here.
# Key:
# Assay in all cases: Kinase Profiling Assay
# Type in all cases: biochemical
# Conditions in all cases: peptide 100 μM
# NEK3(h) = target: T1, NEK3(h) (Homo sapiens, UniProt P51956)
# T1 construct: purchased Millipore
# T1 sequence (P51956 1-506): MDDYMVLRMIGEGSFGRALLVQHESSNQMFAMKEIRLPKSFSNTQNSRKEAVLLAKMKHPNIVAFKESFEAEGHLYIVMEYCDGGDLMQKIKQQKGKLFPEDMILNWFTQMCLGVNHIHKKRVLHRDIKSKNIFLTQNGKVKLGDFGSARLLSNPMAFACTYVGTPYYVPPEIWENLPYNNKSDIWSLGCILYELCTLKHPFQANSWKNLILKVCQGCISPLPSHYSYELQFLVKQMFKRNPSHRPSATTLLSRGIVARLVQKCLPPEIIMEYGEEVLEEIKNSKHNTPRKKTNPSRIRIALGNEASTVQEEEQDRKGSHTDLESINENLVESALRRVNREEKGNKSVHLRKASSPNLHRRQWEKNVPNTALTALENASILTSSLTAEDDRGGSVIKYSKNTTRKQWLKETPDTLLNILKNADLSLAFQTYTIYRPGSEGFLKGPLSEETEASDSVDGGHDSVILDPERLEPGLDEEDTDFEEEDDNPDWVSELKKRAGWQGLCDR
# Summary of the method: (§1)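 Specificity of MK2 inhibitory peptides is assessed against a panel of 266 human kinases. Kinase transfers a radiolabeled phosphate from ATP onto a positively charged substrate, which is trapped on a negatively charged filter and quantified by scintillation counting against full-activity control; duplicate determinations.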
# PKCζ(h) = target: T2, PKCζ(h) (Homo sapiens, UniProt Q05513)
# T2 sequence (Q05513 1-592): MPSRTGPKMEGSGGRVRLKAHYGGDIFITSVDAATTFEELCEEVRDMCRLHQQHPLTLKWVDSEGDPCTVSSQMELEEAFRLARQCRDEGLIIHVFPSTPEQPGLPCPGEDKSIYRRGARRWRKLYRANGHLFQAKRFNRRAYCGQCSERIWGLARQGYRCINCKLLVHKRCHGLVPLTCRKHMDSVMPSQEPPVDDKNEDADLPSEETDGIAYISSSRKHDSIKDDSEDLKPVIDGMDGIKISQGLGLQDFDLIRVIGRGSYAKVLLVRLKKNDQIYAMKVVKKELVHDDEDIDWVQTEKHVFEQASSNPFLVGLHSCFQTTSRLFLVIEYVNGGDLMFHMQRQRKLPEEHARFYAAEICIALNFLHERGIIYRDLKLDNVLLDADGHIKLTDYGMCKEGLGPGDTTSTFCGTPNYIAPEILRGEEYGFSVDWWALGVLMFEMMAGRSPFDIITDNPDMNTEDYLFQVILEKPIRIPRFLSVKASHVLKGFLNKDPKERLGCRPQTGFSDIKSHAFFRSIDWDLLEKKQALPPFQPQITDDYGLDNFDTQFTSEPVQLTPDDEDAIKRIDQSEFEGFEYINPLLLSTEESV
# Summary of the method: as §1
# BrSK2(h) = target: T3, BrSK2(h) (Homo sapiens, UniProt Q8IWQ3)
# T3 sequence (Q8IWQ3 1-736): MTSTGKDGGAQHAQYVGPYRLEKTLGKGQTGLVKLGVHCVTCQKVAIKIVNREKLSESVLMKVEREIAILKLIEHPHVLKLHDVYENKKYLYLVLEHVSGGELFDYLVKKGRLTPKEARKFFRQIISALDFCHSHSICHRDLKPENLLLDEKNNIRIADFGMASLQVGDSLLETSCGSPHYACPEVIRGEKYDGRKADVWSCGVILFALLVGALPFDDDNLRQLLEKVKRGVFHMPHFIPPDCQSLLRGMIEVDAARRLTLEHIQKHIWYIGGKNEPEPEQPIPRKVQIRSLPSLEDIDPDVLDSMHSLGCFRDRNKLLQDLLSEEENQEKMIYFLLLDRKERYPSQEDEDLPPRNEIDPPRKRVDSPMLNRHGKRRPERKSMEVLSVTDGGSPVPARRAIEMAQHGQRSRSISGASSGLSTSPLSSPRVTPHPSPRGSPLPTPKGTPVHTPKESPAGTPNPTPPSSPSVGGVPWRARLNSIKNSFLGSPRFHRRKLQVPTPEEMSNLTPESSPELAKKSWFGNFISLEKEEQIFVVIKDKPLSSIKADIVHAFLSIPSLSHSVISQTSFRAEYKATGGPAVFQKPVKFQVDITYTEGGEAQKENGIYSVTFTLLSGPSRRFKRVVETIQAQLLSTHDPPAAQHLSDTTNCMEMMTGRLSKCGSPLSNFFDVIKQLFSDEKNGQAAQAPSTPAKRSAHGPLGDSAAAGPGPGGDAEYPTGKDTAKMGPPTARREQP
# Summary of the method: as §1
# NLK(h) = target: T4, NLK(h) (Homo sapiens, UniProt Q9UBE8)
# T4 construct: purchased Millipore
# T4 sequence (Q9UBE8 1-527): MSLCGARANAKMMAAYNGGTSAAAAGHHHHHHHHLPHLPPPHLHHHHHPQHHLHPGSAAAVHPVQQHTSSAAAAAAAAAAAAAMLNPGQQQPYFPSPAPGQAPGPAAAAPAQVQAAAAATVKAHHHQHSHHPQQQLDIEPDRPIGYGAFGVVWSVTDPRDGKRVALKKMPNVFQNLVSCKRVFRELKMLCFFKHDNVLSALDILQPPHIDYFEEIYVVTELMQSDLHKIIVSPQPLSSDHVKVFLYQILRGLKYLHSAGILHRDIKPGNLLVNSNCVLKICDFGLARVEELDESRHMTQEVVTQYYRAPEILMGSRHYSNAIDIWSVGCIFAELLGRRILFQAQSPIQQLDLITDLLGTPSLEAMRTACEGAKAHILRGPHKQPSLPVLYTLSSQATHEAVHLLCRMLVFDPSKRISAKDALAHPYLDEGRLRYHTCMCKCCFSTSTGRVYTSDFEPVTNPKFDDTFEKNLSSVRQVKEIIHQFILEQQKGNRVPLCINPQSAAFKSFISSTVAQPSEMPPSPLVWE
# Summary of the method: as §1
# GSK3α(h) = target: T5, GSK3α(h) (Homo sapiens, UniProt P49840)
# T5 construct: purchased Millipore
# T5 sequence (P49840 whole entry): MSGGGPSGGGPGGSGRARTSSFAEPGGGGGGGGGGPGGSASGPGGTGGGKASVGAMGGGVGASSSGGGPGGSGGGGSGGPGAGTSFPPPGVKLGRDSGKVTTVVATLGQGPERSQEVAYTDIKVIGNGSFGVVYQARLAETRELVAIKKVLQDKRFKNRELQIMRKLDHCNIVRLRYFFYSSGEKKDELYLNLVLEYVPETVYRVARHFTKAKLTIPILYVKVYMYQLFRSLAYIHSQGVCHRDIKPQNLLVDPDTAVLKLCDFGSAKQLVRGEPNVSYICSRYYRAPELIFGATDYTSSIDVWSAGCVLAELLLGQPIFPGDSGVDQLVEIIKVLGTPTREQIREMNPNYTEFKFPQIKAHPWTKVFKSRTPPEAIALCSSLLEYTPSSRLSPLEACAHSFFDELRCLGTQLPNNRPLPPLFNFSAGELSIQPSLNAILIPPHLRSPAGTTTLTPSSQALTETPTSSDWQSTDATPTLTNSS
# Summary of the method: as §1
Sequence,% activity (NEK3(h)) [%],% activity (PKCζ(h)) [%],% activity (BrSK2(h)) [%],% activity (NLK(h)) [%],% activity (GSK3α(h)) [%]
YARAAARQARAKALNRQLGVA (Mammal) [MMI-0200],100,98,,,
YARAAARQARAKALARQLGVAA [MMI-0100],100,82,129,100,
HRRIKAWLKKIKALARQLGVAA (Mammal) [MMI-0500],20,7,84,19,175
KAFAKLAARLYRKALARQLGVAA [MMI-0400],85,75,86,90,164
FAKLAARLYRKALARQLGVAA [MMI-0300],92,81,83,87,157

# — patent US20150258192A1, “COMPOSITIONS AND METHODS FOR PREVENTING OR TREATING CHRONIC LUNG ALLOGRAFT DYSFUNCTION (CLAD) AND IDIOPATHIC PULMONARY FIBROSIS (IPF)” (priority 2014, published 2015)
